# Data taken from patent US7074761B1, “Peptides and production and use thereof” (Takeda Chemical Ind., Ltd., priority 1996, dated 2006).
# Where a SMILES comes first, the peptide text is derived from it. Bridges are numbered along the chain shown (N, C = ends). Where no end group is shown, it is not given here.
# What was measured:
# human SSTR4 = molecular target: T1, human SSTR4 (Homo sapiens, UniProt P31391); experiment: [125I]-somatostatin binding inhibition, SSTR4 CHO cell membrane fraction; conditions: 25° C., 60 minutes
# T1 construct: expressed in transfected cells; host or cells: CHO(dhfr-) cells, clone SSTR4-1-2, plasmid pA-1-11-SSTR4 (vector pAKKO-111)
# T1 sequence (P31391 whole entry): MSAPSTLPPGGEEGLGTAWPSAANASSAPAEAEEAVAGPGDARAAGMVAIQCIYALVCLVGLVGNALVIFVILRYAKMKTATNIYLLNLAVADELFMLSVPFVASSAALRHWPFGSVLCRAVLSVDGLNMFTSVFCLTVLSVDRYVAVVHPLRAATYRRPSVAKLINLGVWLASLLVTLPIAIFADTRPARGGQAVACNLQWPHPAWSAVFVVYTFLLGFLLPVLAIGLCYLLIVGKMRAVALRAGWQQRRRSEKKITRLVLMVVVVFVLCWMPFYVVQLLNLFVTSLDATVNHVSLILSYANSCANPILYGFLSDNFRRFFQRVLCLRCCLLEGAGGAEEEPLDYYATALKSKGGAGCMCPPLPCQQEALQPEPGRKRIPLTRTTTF
# Method: CHO(dhfr^−) cells (1×10^6 cells) were cultured on HAM F12 medium containing 10% fetal bovine serum in a dish with a diameter of 8 cm for 24 hours. Into these cells was introduced 10 μg of the human SSTR4 DNA expression plasmid pA-1-11-SSTR4 obtained as described above in (2) by the calcium phosphate method (Cell Phect Transfection Kit; Pharmacia). At 24 hours after transfection, the medium was exchanged for DMEM containing 10% dialyzed fetal bovine serum, and cells forming a colony on this medium (namely DHFR^+ cells) were selected. Further, the cells selected were treated by the limiting dilution method for cloning from a single cell, and the cells thus cloned were measured for their somatostatin receptor protein expression ability by the binding assay described in Reference Example 1 (3). In this manner, a cell line with high somatostatin-binding activity, SSTR4-1-2, was selected.
# The human somatostatin receptor expressing CHO cell lines SSTR1-8-3, SSTR2-HS5-9, SSTR3-15-19, SSTR4-1-2 and SSTR5-32-4 (10^9 cells each) were respectively suspended in phosphate buffered physiological saline supplemented with 5 mM EDTA (PBS-EDTA) and centrifuged. To each cell pellet was added 10 ml of cell homogenation buffer (10 mM NaHCO3, 5 mM EDTA, pH=7.5), followed by homogenation with a Polytron homogenizer. The homogenate was centrifuged at 400×g for 15 minutes, and the supernatant obtained was further centrifuged at 100,000×g for 1 hour to give a membrane fraction as a precipitate. […]
# (§1) The membrane fractions prepared in Reference Example 6 were each diluted to 3 μg/ml with assay buffer. […] After filtration, the radioactivity of [^125I]-somatostatin remaining on the filter paper was measured. For each test substance, the binding inhibition percentage (%) was calculated according to the formula: PBM=(B−NSB)/(B0−NSB)×100 (where PBM: percent maximum binding; B: radioactivity when the test sample is added; B0: maximum bound radioactivity; NSB: non-specifically bound radioactivity). […]
# human SSTR5 = molecular target: T2, human SSTR5 (Homo sapiens, UniProt P35346); experiment: [125I]-somatostatin binding inhibition, SSTR5 CHO cell membrane fraction; conditions: 25° C., 60 minutes
# T2 construct: expressed in transfected cells; host or cells: CHO(dhfr-) cells, clone SSTR5-32-4, plasmid pA-1-11-SSTR5 (vector pAKKO-111)
# T2 sequence (P35346 whole entry): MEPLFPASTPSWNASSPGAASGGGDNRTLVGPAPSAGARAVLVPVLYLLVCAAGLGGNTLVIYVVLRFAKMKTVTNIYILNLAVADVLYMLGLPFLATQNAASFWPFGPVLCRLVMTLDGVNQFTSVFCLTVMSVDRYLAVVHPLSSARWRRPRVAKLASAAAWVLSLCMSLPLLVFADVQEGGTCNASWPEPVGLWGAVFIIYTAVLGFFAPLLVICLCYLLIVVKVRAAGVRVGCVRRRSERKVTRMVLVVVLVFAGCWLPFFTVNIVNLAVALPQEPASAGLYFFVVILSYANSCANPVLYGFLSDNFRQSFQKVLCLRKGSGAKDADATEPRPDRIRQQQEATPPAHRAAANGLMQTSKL
# Method: CHO(dhfr^−) cells (1×10^6 cells) were cultured on HAM F12 medium containing 10% fetal bovine serum in a dish with a diameter of 8 cm for 24 hours. Into these cells was introduced 10 μg of the human SSTR5 cDNA expression plasmid pA-1-11-SSTR5 obtained as described above in (2) by the calcium phosphate method (Cell Phect Transfection Kit; Pharmacia). At 24 hours after transfection, the medium was exchanged for DMEM containing 10% dialyzed fetal bovine serum, and cells forming a colony on this medium (namely DHFR^+ cells) were selected. Further, the cells selected were treated by the limiting dilution method for cloning from a single cell, and the cells thus cloned were measured for their somatostatin receptor protein expression ability by the binding assay described in Reference Example 1 (3). In this manner, a cell line with high somatostatin-binding activity. SSTR5-32-4, was selected. […]
# as §1
# [1] = molecular target: T3, human somatostatin receptor protein subtype 2 (SSTR2) (human, UniProt P30874 1-369); experiment: cell-based or functional assay
# T3 sequence (P30874 whole entry): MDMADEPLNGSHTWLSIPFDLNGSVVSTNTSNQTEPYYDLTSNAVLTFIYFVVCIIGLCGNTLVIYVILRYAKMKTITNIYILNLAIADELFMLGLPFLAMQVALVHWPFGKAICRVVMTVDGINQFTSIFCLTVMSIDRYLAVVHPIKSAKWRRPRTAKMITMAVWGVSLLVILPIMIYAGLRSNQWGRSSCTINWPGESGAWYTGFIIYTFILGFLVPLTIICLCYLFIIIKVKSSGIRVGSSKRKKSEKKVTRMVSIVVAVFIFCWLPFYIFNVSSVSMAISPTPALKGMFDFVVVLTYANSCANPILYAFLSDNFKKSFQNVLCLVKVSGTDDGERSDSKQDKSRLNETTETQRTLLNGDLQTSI
# [2] = molecular target: T4, human somatostatin receptor protein subtype 3 (SSTR3) (human, UniProt P32745 1-418); experiment: cell-based or functional assay
# T4 sequence (P32745 whole entry): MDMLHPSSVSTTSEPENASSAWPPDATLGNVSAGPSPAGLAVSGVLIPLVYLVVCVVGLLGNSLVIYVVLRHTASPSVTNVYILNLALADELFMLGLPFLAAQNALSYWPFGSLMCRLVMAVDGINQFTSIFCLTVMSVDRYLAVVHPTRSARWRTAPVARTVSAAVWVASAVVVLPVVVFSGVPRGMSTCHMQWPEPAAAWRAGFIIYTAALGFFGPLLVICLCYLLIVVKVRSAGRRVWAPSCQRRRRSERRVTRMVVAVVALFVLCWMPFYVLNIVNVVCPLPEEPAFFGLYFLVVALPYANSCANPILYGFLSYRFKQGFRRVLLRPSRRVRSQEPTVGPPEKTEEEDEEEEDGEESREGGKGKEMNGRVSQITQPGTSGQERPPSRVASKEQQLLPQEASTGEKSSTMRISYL
# [3] = molecular target: human somatostatin receptor protein subtype 4 (SSTR4) (human, UniProt P31391 1-388); experiment: cell-based or functional assay
# human somatostatin receptor protein subtype 4 (SSTR4), sequence (P31391 whole entry): as the sequence (P31391 whole entry) above
# [4] = molecular target: T5, human somatostatin receptor protein subtype 5 (SSTR5) (human, UniProt P35346 1-364); experiment: cell-based or functional assay
# T5 sequence (P35346 whole entry): as the sequence (P35346 whole entry) above
# [5] = molecular target: T3, human somatostatin receptor protein …; experiment: displacement of 200 pM [125I]-somatostatin from membrane fraction of CHO cells expressing the human receptor; filter binding, Hill plot
# Method: (§2) The membrane fractions prepared in Reference Example 6 were each diluted to 3 µg/ml with assay buffer. […] After 60 minutes of reaction at 25° C., each reaction mixture was suction-filtered using a polyethyleneimine-treated Whatman glass filter (GF-B). […] For each test substance, the binding inhibition percentage (%) was calculated according to the formula:
# (§3) PBM=(B-NSB)/(B_0-NSB)×100 (where PBM: percent maximum binding; B: radioactivity when the test sample is added; B_0: maximum bound radioactivity; NSB: non-specifically bound radioactivity).
# [6] = molecular target: T4, human somatostatin receptor protein …; experiment: as above
# Method: as §2, §3
# [7] = molecular target: T5, human somatostatin receptor protein …; experiment: as above
# Method: as §2, §3
# [8] = molecular target: T6, human somatostatin receptor protein subtype 1 (SSTR1) (human, UniProt P30872 1-391); experiment: as above
# T6 construct: whole, on cells; also called cell line SSTR1-8-3
# T6 sequence (P30872 whole entry): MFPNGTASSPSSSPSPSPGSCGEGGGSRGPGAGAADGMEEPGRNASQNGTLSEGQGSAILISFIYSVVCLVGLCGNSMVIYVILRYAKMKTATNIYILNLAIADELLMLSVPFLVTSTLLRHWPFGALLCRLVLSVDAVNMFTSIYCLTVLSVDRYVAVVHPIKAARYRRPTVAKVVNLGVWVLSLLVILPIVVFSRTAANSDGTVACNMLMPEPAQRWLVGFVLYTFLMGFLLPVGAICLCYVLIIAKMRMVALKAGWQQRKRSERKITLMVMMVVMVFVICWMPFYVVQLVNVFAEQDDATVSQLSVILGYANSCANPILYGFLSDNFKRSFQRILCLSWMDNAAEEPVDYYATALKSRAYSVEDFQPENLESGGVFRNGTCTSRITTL
# Method: as §2, §3
Molecule,IC50 (human SSTR4),IC50 (human SSTR5),ED50 of inhibition of forskolin-stimulated intracellular cAMP accumulation [1],ED50 of inhibition of forskolin-stimulated intracellular cAMP accumulation [2],ED50 of inhibition of forskolin-stimulated intracellular cAMP accumulation [3],ED50 of inhibition of forskolin-stimulated intracellular cAMP accumulation [4],IC50 [5],IC50 [6],IC50 [7],IC50 [8]
C[C@@H](O)[C@@H]1NC(=O)[C@H](CCCCN)NC(=O)[C@H](Cc2c[nH]c3ccccc23)NC(=O)[C@H](Cc2ccccc2)NC(=O)[C@H](Cc2ccccc2)NC(=O)[C@H](CC(N)=O)NC(=O)[C@H](CCCNC(=N)N)NC(=O)[C@@H](N)CSSC[C@@H](C(=O)N[C@@H](CCCCN)C(=O)O)NC(=O)[C@H](CO)NC(=O)[C@H](CO)NC(=O)[C@H](Cc2ccccc2)NC1=O [hCS-13] (H-CRNFFWKTFSSCK-OH; disulfide 1-12; N-terminus and C-terminus assumed),500 pM,500 pM,,,,,,,,
DRMPCRNFFWKTFSSCK (disulfide 5-16) [human peptide hCS-17],,,5000 pM,1000 pM,100 pM,200 pM,600 pM,600 pM,400 pM,
MPCRNFFWKTFSSCK (disulfide 3-14) [deletion type human peptide hCS-15],,,7000 pM,1000 pM,200 pM,200 pM,800 pM,900 pM,,
CRNFFWKTFSSCK (disulfide 1-12) [deletion type human peptide hCS-13],,,,,,,300 pM,700 pM,,6000 pM
